Data taken from the DeepSol protein solubility set.

Assay: soluble on expression in E. coli; label from the status in PepcDB or PDB records

## MSKKSQIIETATRLFAEHGFENTPVSLICEEAEVSKGAVFHHFKNKNDILREVFIHITTIIEETDKNDVHLATQEDPLEAAIHEIFDGMSVAKYRKMYQFNFSVMVHPTTRAIVADLIEDRYQQLQTSAEEIFRAVGYSNPVVITKMFIAEIDGIAMNYLLNNDFPLMDIKQEFIKKYCQ
  soluble on expression in E. coli: not soluble

## MGHHHHHHSHMSNLTPESSPELAKKSWFGNFISLEKEEQIFVVIKDKPLSSIKADIVHAFLSIPSLSHSVISQTSFRAEYKATGGPAVFQKPVKFQVDITYTEGGEAQKENGIYSVTFTLLSGPSRRFKRVVETIQAQLLSTHDPLRPSTCQTPLTVWK
  soluble on expression in E. coli: not soluble

## MIKESIILKNLEVPTGNICVIKGDKGKLEFLSLGDYGKEVNVKADFLGITRDLEGVPNGKVQPLTKKWVVTMSTQYGCDSGCKFCDVPKVGKGVNVTYNDLKTQLEQALNLHPEIDRTERLNIHYARMGEPSWNNDVLDFTRNLKNIVKPYIGESLIHPVFTTMCPNKNKFLAHRINEWVDIKNNLFQGDAGLQLSINSTNENQRRDMFRGNALTLNEISSIGNDLPMPKGRKYCLNFALADEYEVDAKVLKKLFDPSKFMVKITPLHKTVSSIENDIKTTKGYVSYTPYKDIENDLKKMGFDVLVFVPSYDEDLGRITCGNVILSGSLPKCKYKINLEHHHHHH
  soluble on expression in E. coli: not soluble

## MSLLKQKITQAPKTKISQTLRSWLPILQANIEDLKENLDKFAEDNPFLNVQDSIQTHDKGKNYFDSFYKHNVNSAFVDSKGLAKKSVYELLNEQILPPLFPTNKSQELAKKIIECLNEEGYFEYDEEFLKEYSLEEIERVRARFKFLDPVGVGAKDYKEAFLFALENMELDEDIDEFCRMLIMDFENIQNYTKEPLYKEALAVLKRFSTPPFLEYFEDSRIIVPDIFVYKENGEIKVKINDDYYPEISIQTDGLEHDFLSHYIKEAKNLVDALAMRKATLYKIGLMIVEYQYDFFMGKEIKPMTFKDLALDLERNASTISRAVANKYLSCERGLIPLRDFFAFALDEEGETSNVGVKEFVANLVKNEDRNKPLSDSKILELIKEEFKVDIGRRTITKYRKHLNIASSTDRKKLYELEGEGHHHHHH
  soluble on expression in E. coli: soluble

## AHHHHHHGSVERKKWSENFSEWFNEVIEEAGILDKRYPVKGMNVWLPYGLKIMKNIEKFIHEEMERTDHQEVLFPALIPETEFQKEAEHIAGFEGEVFWVTHAGHEPLDVRLVLRPTSETAMYSMFALWIRSHADLPFKVYQIVNVYRYETKHTRPLIRVREISRFFEAHTAHADFEDAERQIKEDLEIFDNLMKKLAIAYVISKRPEWDKFPGAYYSLGAEVVMPDGRTLQIGTMHNYKQNFAKAYNILYEKEDGTHDYVHQTTFGMSERLLAAVIAIHGDDRGMVLPPTIAPIQVVIVPIPKKGSEEEVYSYAREIEEELKLAGIRVHLDLRDKRPGWKFYDWELKGVPVRIEVGPRDAAEKTVVLARRDKLEKITVSREELVDKVRELFDDIMQYLYERAKEWLESHIKRVDTIEEAKELFNDRRGIVEIPWCGEEECGLKMEEELEAKMLGIPYPEESARVEGKKCPVCGREAKFIARFARTY
  soluble on expression in E. coli: not soluble

## MKNSLRIPRIIHQTWKTKDVPSPLDQLPQTWKEYLPNWEYILWTDEMNREFVCKHFPDFLEKYDTYPCNIQRADAIRYLLLKVYGGLYVDMDFECLENIEFLLEGSDFIVGKEPDWHAKRFGFEYIICNAFMASTPDNDFINFVCQRLINHSGGKVVNNGFDILDSTGPFLLTHAFNAFPHKEDIRILESKTIYPIGQWEVEKIKNNQIPKEMEERINQAHAIHYFFGTWFGKLEHHHHHH
  soluble on expression in E. coli: not soluble

## MQGKLNCEIEMEVQIFTHKNCVECNMLLEYLENKGLLGKVKIIDTELYPFLAFEKGVISTPSIFIDGKLVYAGIVDFEEFERILSGQKVTKQIDKASLVEKLMLGIVDSFAATAWLYINRDFDSFLAQKDFVMAVTGLSLLDEREGDEYYNYLRNVMVKEGDRYLEEWKPRMLRNISSNFIREIFWLYERKISKETLTQKYPVEVFAHWLMIRSGAVGRVGLRIYPLSDSTVMKRVLEAYNFMLENYDEIFNKVQKEQMELKTKNKEQVRYLQL
  soluble on expression in E. coli: soluble
